Experimental data as given in US20030203372A1, “Analysis method” (priority 2000, published 2003).

Legend:
[1] = system: human macrophages; assay: Custom gene array, macrophages with no cytokines, IL-10 or LPS + IFN, in normoxia and hypoxia; format: cell-based; settings: Table 15, referenced to the median value of that gene throughout all 6 conditions; for mRNA EXPRESSION (experimental condition) #1: #1 no cytokines/normoxia; for mRNA EXPRESSION (experimental condition) #2: #2 no cytokines/hypoxia; for mRNA EXPRESSION (experimental condition) #3: #3 IL-10/normoxia; for mRNA EXPRESSION (experimental condition) #4: #4 IL-10/hypoxia; for mRNA EXPRESSION (experimental condition) #5: #5 LPS/IFN/normoxia; for mRNA EXPRESSION (experimental condition) #6: #6 LPS/IFN/hypoxia
Method: Macrophages were derived and cultured as described elsewhere in the specification. A total of 6 experimental conditions were analysed, as shown below. Where cells were treated with cytokines or hypoxia (0.1% oxygen), this was for 6 hr. Lipopolysaccharide (LPS) (from E.coli 026:B6; Sigma), gamma Interferon (IFN) and Interleukin-10 (IL-10) were all used at a final concentration of 100 ng/ml. The effect of gamma Interferon and Lipopolysaccharide is to activate macrophages, with a Th1 biased phenotype, as found in many inflammatory conditions. Interleukin-10 is a Th2 cytokine and de-activates macrophages, and suppresses their effector functions.

[2] = system: primary human cell cultures (11 cell types); assay: Custom gene array, 11 human cell types in normoxia or hypoxia for 6 hr and 18 hr; format: cell-based; settings: for mRNA expression level, #1 HY 6 hr: cell type #1, hypoxia 6 hr; for mRNA expression level, #1 HY 18 hr: cell type #1, hypoxia 18 hr; for mRNA expression level, #1 NO: cell type #1, normoxia; for mRNA expression level, #2 HY 6 hr: cell type #2, hypoxia 6 hr; for mRNA expression level, #2 HY 18 hr: cell type #2, hypoxia 18 hr; for mRNA expression level, #2 NO: cell type #2, normoxia; for mRNA expression level, #3 HY 6 hr: cell type #3, hypoxia 6 hr; for mRNA expression level, #3 HY 18 hr: cell type #3, hypoxia 18 hr; for mRNA expression level, #3 NO: cell type #3, normoxia; for mRNA expression level, #4 HY 6 hr: cell type #4, hypoxia 6 hr; for mRNA expression level, #4 HY 18 hr: cell type #4, hypoxia 18 hr; for mRNA expression level, #4 NO: cell type #4, normoxia; for mRNA expression level, #5 HY 6 hr: cell type #5, hypoxia 6 hr; for mRNA expression level, #5 NO: cell type #5, normoxia; for mRNA expression level, #6 HY 6 hr: cell type #6, hypoxia 6 hr; for #6 HY 18 hr (mRNA expression level): cell type #6, hypoxia 18 hr; for mRNA expression level, #6 NO: cell type #6, normoxia; for #7 HY 6 hr (mRNA expression level): cell type #7, hypoxia 6 hr; for #7 HY 18 hr (mRNA expression level): cell type #7, hypoxia 18 hr; for #7 NO (mRNA expression level): cell type #7, normoxia; for #8 HY 6 hr (mRNA expression level): cell type #8, hypoxia 6 hr; for #8 HY 18 hr (mRNA expression level): cell type #8, hypoxia 18 hr; for #8 NO (mRNA expression level): cell type #8, normoxia; for #9 HY 6 hr (mRNA expression level): cell type #9, hypoxia 6 hr; for #9 HY 18 hr (mRNA expression level): cell type #9, hypoxia 18 hr; for #9 NO (mRNA expression level): cell type #9, normoxia; for #10 HY 6 hr (mRNA expression level): cell type #10, hypoxia 6 hr; for #10 HY 18 hr (mRNA expression level): cell type #10, hypoxia 18 hr; for #10 NO (mRNA expression level): cell type #10, normoxia; for #11 HY 6 hr (mRNA expression level): cell type #11, hypoxia 6 hr; for #11 HY 18 hr (mRNA expression level): cell type #11, hypoxia 18 hr; for #11 NO (mRNA expression level): cell type #11, normoxia; for HIGHEST FOLD CHANGE IN HYPOXIA (hr hypoxia + cell type): hypoxia/normoxia induction ratio;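 for mRNA expression level, #1 HY 18 hr: cell type #1 is adipocyte from subcutaneous adult adipose tissue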;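 for mRNA expression level, #1 HY 6 hr: cell type #1 is adipocyte from subcutaneous adult adipose tissue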;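 for mRNA expression level, #1 NO: cell type #1 is adipocyte from subcutaneous adult adipose tissue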;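 for mRNA expression level, #2 HY 18 hr: cell type #2 is fetal cardiomyocyte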;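 for mRNA expression level, #2 HY 6 hr: cell type #2 is fetal cardiomyocyte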;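 for mRNA expression level, #2 NO: cell type #2 is fetal cardiomyocyte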;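 for mRNA expression level, #3 HY 6 hr: cell type #3 is human umbilical vein endothelial cells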;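 for mRNA expression level, #3 NO: cell type #3 is human umbilical vein endothelial cells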;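 for mRNA expression level, #4 HY 18 hr: cell type #4 is adult dermal fibroblast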;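 for mRNA expression level, #4 HY 6 hr: cell type #4 is adult dermal fibroblast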;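 for mRNA expression level, #4 NO: cell type #4 is adult dermal fibroblast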;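 for mRNA expression level, #5 HY 6 hr: cell type #5 is adult hepatocyte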;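 for mRNA expression level, #5 NO: cell type #5 is adult hepatocyte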;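 for mRNA expression level, #6 HY 6 hr: cell type #6 is blood-derived macrophage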;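 for mRNA expression level, #6 NO: cell type #6 is blood-derived macrophage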
Procedure, shortened: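 Eleven primary, unmodified human cell types (one non-primary neuronal type) held in normoxia or hypoxia for 6 hr and 18 hr. RNA hybridised to duplicate or triplicate custom arrays, normalised per array to reference genes. Expression given relative to each gene's median across all conditions.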

Molecule	mRNA EXPRESSION (experimental condition) #1 [1]	mRNA EXPRESSION (experimental condition) #2 [1]	mRNA EXPRESSION (experimental condition) #3 [1]	mRNA EXPRESSION (experimental condition) #4 [1]	mRNA EXPRESSION (experimental condition) #5 [1]	mRNA EXPRESSION (experimental condition) #6 [1]	mRNA expression level, #1 HY 6 hr [2]	mRNA expression level, #1 HY 18 hr [2]	mRNA expression level, #1 NO [2]	mRNA expression level, #2 HY 6 hr [2]	mRNA expression level, #2 HY 18 hr [2]	mRNA expression level, #2 NO [2]	mRNA expression level, #3 HY 6 hr [2]	mRNA expression level, #3 HY 18 hr [2]	mRNA expression level, #3 NO [2]	mRNA expression level, #4 HY 6 hr [2]	mRNA expression level, #4 HY 18 hr [2]	mRNA expression level, #4 NO [2]	mRNA expression level, #5 HY 6 hr [2]	mRNA expression level, #5 NO [2]	other results
p1D24 (nucleic acid, listed as Homo Sapiens, EST array clone; misc_feature 112, 125, 156, 208, 224, 232, 239, 258, 270, 297, 316, 350,359: n = A,T,C or G) DNA: TTCTATCAGAAATTGTATTTATTTACCAGCATTTATGGCAAATGGCCAGACCTGGGCAGGGTGGTAGCAATGATAGATTTTACAAATTAAGGCATTGTTCTTTATTTCAAANTTTTCATTTACCNATATTTTCCTTGGTCTTAGAAATATGAATANTTTAGAGCTGGCAATACTCACCATCAGGATATAATAAACGGAGGTTTCTTTNTCCGAAATCCATAAANTGTAGTANTACTCTNTTGTACTTTTAAAATTCCNATTTTTGCAGTNGGCTTCCTCTCAGTGATTTAGTTAGGNAGTTTTGGTACATTTTGGNGGGGTCATAAACATGTTCATAGGATAGGAGTACNGGGCATTTNTGGAAAAACCCG	0.58	0.71	1.00	1.32	1.56	2.59	0.71	1.39	0.98	1.98	2.16	1.55	1.47	1.01	1.18	0.49	0.67	0.74	1.94	1.53	mRNA expression level, #6 HY 6 hr [2]: 0.98; #6 HY 18 hr (mRNA expression level) [2]: 0.96; mRNA expression level, #6 NO [2]: 0.90; #7 HY 6 hr (mRNA expression level) [2]: 0.79; #7 HY 18 hr (mRNA expression level) [2]: 0.49; #7 NO (mRNA expression level) [2]: 0.71; #8 HY 6 hr (mRNA expression level) [2]: 0.90; #8 HY 18 hr (mRNA expression level) [2]: 0.93; #8 NO (mRNA expression level) [2]: 0.53; #9 HY 6 hr (mRNA expression level) [2]: 0.51; #9 HY 18 hr (mRNA expression level) [2]: 0.43; #9 NO (mRNA expression level) [2]: 0.81; #10 HY 6 hr (mRNA expression level) [2]: 10.9; #10 HY 18 hr (mRNA expression level) [2]: 11.79; #10 NO (mRNA expression level) [2]: 4.63; #11 HY 6 hr (mRNA expression level) [2]: 2.23; #11 HY 18 hr (mRNA expression level) [2]: 1.65; #11 NO (mRNA expression level) [2]: 1.85; HIGHEST FOLD CHANGE IN HYPOXIA (hr hypoxia + cell type) ([2]; 18 hr renal epithelial): 2.55 (18 hr renal epithelial) fold
p1E7 (nucleic acid, listed as Homo Sapiens, EST array clone; misc_feature 72, 132, 133, 205: n = A,T,C or G) DNA: GCTTGAGATCTCCAGCCTTACCGCGGCTCGAAATGGCCCCAACTGCTCCTGCACCACTGGTGTCTCCTGCANCTGCACCGGCTCCTGCAAGTGCAAAGAGTGCAAATGACCTCCTGCAAGAAGAGCTGCTGNNCTGCTGCCCCGTGGTGTGCAAGTGTGCCACGGTGTGTCTGCAAAGGGACGTTGGAGAACTGCAGCTGCTGTNCTGATGTGGGAACAAGCTCTTCTCCCAGATGTTAATAGAACAAGCTGCACAACCTGGGATTTTTTTTCAATACGATACTTGAGCCATTTTCTGCATTTCTTTTTATTGTTAAATATGTGAGTGACAATAAAACAATTTTGACTTTGAATCTTAAAAA	0.49	1.26	0.70	1.11	1.32	2.89	1.29	1.63	1.20	0.18	0.22	0.12	1.03	0.71	1.40	2.17	2.85	2.36	6.75	4.89	mRNA expression level, #6 HY 6 hr [2]: 1.07; #6 HY 18 hr (mRNA expression level) [2]: 0.86; mRNA expression level, #6 NO [2]: 0.08; #7 HY 6 hr (mRNA expression level) [2]: 2.06; #7 HY 18 hr (mRNA expression level) [2]: 1.32; #7 NO (mRNA expression level) [2]: 0.87; #8 HY 6 hr (mRNA expression level) [2]: 0.75; #8 HY 18 hr (mRNA expression level) [2]: 1.20; #8 NO (mRNA expression level) [2]: 0.03; #9 HY 6 hr (mRNA expression level) [2]: 0.05; #9 HY 18 hr (mRNA expression level) [2]: 0.04; #9 NO (mRNA expression level) [2]: 0.04; #10 HY 6 hr (mRNA expression level) [2]: 2.60; #10 HY 18 hr (mRNA expression level) [2]: 3.60; #10 NO (mRNA expression level) [2]: 3.09; #11 HY 6 hr (mRNA expression level) [2]: 0.70; #11 HY 18 hr (mRNA expression level) [2]: 0.74; #11 NO (mRNA expression level) [2]: 0.60; HIGHEST FOLD CHANGE IN HYPOXIA (hr hypoxia + cell type) ([2]; 18 hr monocyte): 37.9 (18 hr monocyte) fold
